Patent US20120264231A1, “ASSAY FOR ORAI CALCIUM CHANNEL REGULATORS” (IMMUNE DISEASE INSTITUTE, INC., priority 2009, published 2012)

What was measured:
CD thermal unfolding = type: physicochemical; details: CD signal at 222 nm, 20 μM protein, pH 7.5
Procedure: CD spectra of STIM 1^CT fragments were recorded in a Jasco-810 spectropolarimeter at 25° C. using a 1-mm path length quartz cell with the protein concentration at 20 μM in 10 mM Tris-HCl, 150 mM KCl, 1 mM DTT at pH 7.5. All spectra were obtained as the average of at least ten scans with a scan rate of 50 nm/min. The ellipticity was measured from 190 to 260 nm and converted to mean residue molar ellipticity (deg cm^2 dmol^−1 res^−1). The calculation of secondary structure elements was performed by using DICHROWEB, an online server for protein secondary structure analyses (Whitmore, L. & Wallace, B. A. Nucleic Acids Res 32, W668-W673 (2004)). Thermal unfolding measurements were performed using a 1 mm quartz cell with a protein concentration of 20 μM in the same buffer. To obtain the thermal transition point, the signal changes at 222 nm were fitted using the equation: ΔS=ΔSmax/[…]), where ΔS and ΔSmax are the signal changes at each data point and at the final data point, Tm and T are the transition temperature and experimental temperature, respectively, and k represents the transition rate.

ORAI1 = ORAI1 (Homo sapiens, UniProt Q96D31); test: Confocal localization of mCherry-STIM1 proteins in HEK293 cells; type: cell-based; set-up: expressed in transfected cells; host or cells: HEK293; details: mCherry-STIM1 proteins coexpressed with ORAI1 in HEK293 cells
ORAI1, sequence (Q96D31 whole entry): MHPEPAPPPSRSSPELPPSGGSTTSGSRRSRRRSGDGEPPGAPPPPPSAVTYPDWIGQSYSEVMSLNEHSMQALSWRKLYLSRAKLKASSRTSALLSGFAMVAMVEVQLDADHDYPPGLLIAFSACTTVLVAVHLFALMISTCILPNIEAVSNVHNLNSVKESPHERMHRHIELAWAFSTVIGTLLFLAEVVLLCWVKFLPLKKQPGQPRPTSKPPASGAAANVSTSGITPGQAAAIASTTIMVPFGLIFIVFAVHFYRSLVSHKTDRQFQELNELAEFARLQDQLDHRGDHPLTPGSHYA
Source text: The localization of mCherry-STIM1 proteins in transiently-transfected HEK293 cells was investigated. mCherry-STIM1 (233-683), or (233-498) or (233-463) expressed alone, and also mCherry-STIM (233-683), or (233-498) or (233-463) expressed with ORAI-EYFP in the plasmid ratios 1:0, 0.5:1, 1:1, and 2:1 were examined. […] This is consistent with the functional assay in T cells and with recent reports in the literature (Muik, M., et al., J Biol Chem 283, 8014-8022 (2008); Penna, A., et al., Nature 456, 116-120 (2008); Ji, W., et al., Proc Natl Acad Sci USA 105, 13668-13673 (2008); Yuan, J. P., et al., Nat Cell Biol 11, 337-34 3 (2009); Muik, M., et al., J Biol Chem 284, 8421-8426 (2009); Park, C. Y., et al., Cell 136, 876-890 (2009)). […] The contrasting failure to detect binding of STIM 1 (233-463) in vitro might conceivably reflect the state of the bacterially-expressed protein as a mixture of trimers, tetramers, and undefined large aggregates. A more intriguing possibility, however, is that a weak interaction of STIM 1 (233-463) with ORAI is stabilized and rendered productive by additional proteins in mammalian cells.
An ORAI1-YFP expression plasmid was constructed by cloning the human ORAI1 cDNA (accession number NM_032790) into the vector pEYFP-N1 between the EcoRI and AgeI sites, in frame with the YFP coding sequence. mCherry-tagged STIM 1^CT fragments were made by subcloning mCherry between the BamHI and EcoRI sites of the vector pcDNA3.1(+) (Invitrogen), and subsequently inserting cDNA encoding STIM1^CT fragments between the EcoRI and XhoI sites.
HEK293 cells were transiently transfected with ORAI-YFP or mCherry-STIM plasmids using Lipofectamine 2000 (Invitrogen) according to the manufacturer's instructions. At 48 h post-transfection, confocal imaging was performed on a Zeiss LSM 510 laser scanning microscope with a 100× oil-immersion objective lens. YFP was excited at 488 nm with an argon laser and mCherry at 543 nm with a HeNe laser. All the experiments were carried out with cells bathed in Hanks' Balanced Salt Solution at 37° C.

Substance	Tm (thermal unfolding) (CD thermal unfolding) [°C]	localization at plasma membrane (ORAI1)
STIM1^CT: cytoplasmic region of STIM1, mouse residues 233-685, His-tagged recombinant protein expressed in E coli	47.0±0.3	decorated the plasma membrane
STIM1 (233-463): truncated mouse STIM1 cytoplasmic fragment, residues 233-463, His-tagged recombinant protein	43.8±0.2	decorated the plasma membrane
STIM1 (233-498): truncated mouse STIM1 cytoplasmic fragment, residues 233-498, His-tagged recombinant protein	48.5±0.4	decorated the plasma membrane
